# The DeepSol protein solubility set
# Assay: soluble on expression in E. coli; label from the status in PepcDB or PDB records
row,Sequence,soluble on expression in E. coli
1,MNYTKFDVKNWVRREHFEFYRHRLPCGFSLTSKIDITTLKKSLDDSAYKFYPVMIYLIAQAVNQFDELRMAIKDDELIVWDSVDPCFTVFHQETETFSALSCPYSSDIDQFMVNYLSVMERYKSDTKLFPQGVTPENHLFISALPWVNFDSFNLNVANFTDFFAPVITMAKYQQEGDRLLLPLSVQVHHAVCDGFHVARFINRLQELCNSKLK,soluble
2,MNYYGTSMWASDNNTASNSDSSLNLLGILLLASENNKLINNTVLTNLYGVNLMAESTGIGDKTGPSENILASNIISYNLGTGILFDESYGNLIYNNSFDNIWNVEDESLNTWNSSEIGNYWSDYEGEDADGDGVGDTPYLINSHTGSMDYLPVTRSSDFPELEHHHHHH,not soluble
3,MPAELLLYRSNLLGSDLTVTNFGGGNTSAKLEEMDPLTGEPVEVLWVKGSGGDIGSMKIDGFATLYQAKLLGLEAHYAGPQDDDKMVGFLPHCTFNLNCRAASIDTPLHSLLPFAHVDHVHPDAIIALAASSGGEAATKEIWGGRIGWLPWKRPGYTLGVMLRDFVKANPGVEGVMLAGHGIICWADSAKACYEHTVRLIADAAGYLNARLAEKPAFGGRLEHHHHHH,not soluble
4,MPAIVLIGAQWGDEGKGKATDLLGGRVQWVVRYQGGNNAGHTVVLPTGENFALHLIPSGVLTPGVTNVIGNGVVIDPGVLLNELRGLQDRGVDTAKLLISADAHLLMPYHIAIDKVTERYMGSKKIGTTGRGIGPCYQDKIARIGIRVADVLDPEQLTHKVEAACEFKNQVLVKIYNRKALDPAQVVDALLEQAEGFKHRIADTRLLLNAALEAGETVLLEGSQGTLLDVDHGTYPYVTSSNPTAGGAAVGSGIGPTRIGTVLGILKAYTTRVGSGPFPTELFDEHGEYLSKTGREFGVTTGRRRRCGWFDAVIARYAARVNGITDYFLTKLDVLSSLESVPVCVGYEIDGRRTRDMPMTQRDLCRAKPVYEELPGWWEDISGAREFDDLPAKARDYVLRLEQLAGAPVSCIGVGPGREQTIVRRDVLQDRP,not soluble
5,MPAKVLINGYGSIGKRVADAVSMQDDMEVIGVTKTKPDFEARLAVEKGYKLFVAIPDNERVKLFEDAGIPVEGTILDIIEDADIVVDGAPKKIGKQNLENIYKPHKVKAILQGGEKAKDVEDNFNALWSYNRCYGKDYVRVVSCNTTGLCRILYAINSIADIKKARIVLVRRAADPNDDKTGPVNAITPNPVTVPSHHGPDVVSVVPEFEGKILTSAVIVPTTLMHMHTLMVEVDGDVSRDDILEAIKKTPRIITVRAEDGFSSTAKIIEYGRDLGRLRYDINELVVWEESINVLENEIFLMQAVHQESIVIPENIDCIRAMLQMEEDNFKSIEKTNKAMGIQ,soluble
6,MPALEFFKDKERGVLDPKVFERAREVAEGLARGKLKSSQFRNYFAELRALENRFERERRKEGEELAFARLVPQLELLRAKLFYNTRSQGPLRDAKEFVEFMEEALEAGKRSPKDFEAMMKYVEAVLAYFYALAK,soluble
7,MPALPPVYTPSGAPSSVHAPPAVPPVPVPTQPLRSEYQTSNDACIKRLEELNIAPAAKLYPTPTEPGKCGVEAEIQTNVFGIEMHQDSLFYQYSVNITTELKNGKEVTFTKKGKDDFVVTERHDKCCAILFRALGDYEEFFKTSDSCLIYDGQSILFSNVDLFQGFREGAVKTKYMQLDGGEMDHKDLKSLPCIKLEVFPTKNPAVKFTREAVARRATDSNLDSVSLAYQQILELALTQPCLRNTARYVVFDHGKMFFIDPLGEGFEKCDVVDVGDGKQVVPGLKKTINFIEGPYGRGRSNPSVVIDGMKVAFHKNQPILDKLKEITTQPVEHGLKGLEKDRCAAVIKGLDCYSTYGGRERHHKIEGIHHEGARNARFELNDGGSCTVAQYFEDVYNITLRYPDTNLIVSKERGNINFYPMELLKISSHQRVQIPQLTSAQSQKTTKESAVLPDVRQRLILTGKNAAQISSDNEVLGKMGVSVCEDPLMVKGRSIPAVKLANAEIGANPINVKDNKWRANRFTRPATAPNVWAMYVVGTASTRITLDTLKKFADEFAAMCKSKGVNMPAPADISLIHMDAIESRLYDATKANCTFVFIITDDSITTLHQRYKMIEKDTKMIVQDMKLSKALSVINAGKRLTLENVINKTNVKLGGSNYVFVDAKKQLDSHLIIGVGISAPPAGTKYAMENKGVLNPNVIGYAYNAQHNQEFSGDFVLNSASQDTLAPIEDIVMHSLNEYQKFHDGGLPRRVIVYRTGTSEGNHGSIMAYEIPLARAAMRDFSPDIQLVYIVVSKDHSFRFFKPDLASLASRPQATSSTASRHSAMPAAPKAWDLNIAPGILVDSIVTNPACKQFFLNSHITLQGTAKTPLYTVLADDAKVSMTALEDITYKLCHLHQIVGLPTSLPTPLYVANEYAKRGRNLWNEAVALNNVPTVSGPEADRLKELTKSICYKASGDLTGRRVNA,not soluble
8,MPALSHGLSRFRGEAKPPGPSPRRSRESMAMDSKASMFTHGARPARIALFSGNYNYTLDGANKSLNRLVDHVQRTTGAQVRIYSPTSPTPAFAPVGELVSVPSVTIPFRRDYRLALGLPAAVRRDVEAFAPDLIHLSAPDLLGAAALKLGRRLKTPVVASLHTLFDSYLDYYGLGGLRALARRRLWQFYGACDFVMTPTPAIGEELRAQNLGVQVRTWARGVDADLFNPARRSADWRAAQGFDPDRPVIVFLGRLVMEKGLAAFADTIDRLAASGPSPQVLIIGDGPARAWFQERLPMATFAGFLTGEALATALASADIFLNPSTTETFGNVNLEAMASGLAIVCADAPNTRALLRDGRDAILCAPSDPASYAQALLSLCQDQNRLRRMGAKALDRSAAYRWTEILDEVVDIYAEALDARASAPSRAEVSPHELRARTGRRAGLIDAQAAALSTPLEHHHHHH,soluble
9,MPASYAYLGPEGTFTEVALRTLPEAATRELVPMVSVPAALDAVRNGEAEAAFVPIENSVEGGITTTLDELVAGEPLMIYREVLLSITFALLVRPDTKLSEIKTVTAHPAAQPQVRNWMKANLPDVVWESAASNADGARLVQEGRYDAAFAGEFAAAKYGLVPLETGIHDAENAQTRFVLVGRPAR,not soluble
10,MPATAYERVVYKSPSEYHYMKVCLEFQEHGVGLNVAQFKQLLVSALRDLFGEVGAALPVDVLTYDEKTLSAILRICSSGLVKLWSSLTLFGAYKSKKCAFRVIQVSPFLLALSGNSREQVLD,not soluble
11,MPDNLSAIFGTILDYAEEVAAGTSNENDERPPRTSLTKKQQKAVSILRNFSTNDQKQEISFQELSQNVLDDWDISNIKSSSVQQLVELLNLPRVQGVLWAAQEISAGRFAPQLPDVPFEVDEDDGVAVKIVRIVRRGEPLGATIKCERGKVYVARIMANGVADRSGCIQEGDRVLEVNGITVADKEPREIVKLLDKCDNGIITFKLIPAEINQKLKQKKSSHRYARALFDYDPWQDKRHPCPEAAISFRGGDILEILDEKDQYWWQTRKIGFGALARRKESHDDENRDDSKKVGLVPSEWLQCQSEIPENGIDTSDDFQSFLENHKGRFYESVFRWRNKKKRRRVVVLLGAPGVGRNEIRRQFFKVFADRFTNAIPHTSRPQRPNESDGVNYYFTSRSEMERMIERKEMLEYGEFRDNLYGTALKSVRKASEKGTVLLTPHPLAIENIRTWEFAPIVIFVQPPEFGEFKHTREVYRSQTTRSHSAASSSNISQNTAATSAARAFSDVEIRQIIDNSAQMEQKYRGYCDAIIRNVDLDTTMNELTGLIYQLESKATWMPMKWLDDIGE,not soluble
12,MPDPQISAIICTHNRDTYLGAAIDSLLVQDFAGEFEVVVIDNGSSDRTREVVEQRSSDSRLKYVFEPTIGLSVARNTGAKFASAEILAYLDDDAVASTHWLQVLYAAYQNYPQLAIAGGKVTLLWPPDTQPPRWLSSGLAGNLGAYDLGDKVVYIQQPGLTPRGLNYSIRRTFLEEIGGFDPHLGRVGKNLLSNEELQMTELALTGGWQVAYLPEALVAHNVAPERLNRSWFLNRGWWQGISECYREQLSGKAGVGQLSRGGERLARGLYKAFRYFSNPAERFDNLVYAYGQIGYLNAVLQGLLFTANNKGSQLEHHHHHH,soluble
13,MPDYDLIAILGPTASGKTPFAAALAAELNTEIISADSRQIYRGMDLGTGKDLEDYTINGRQIPYHLIDIADPGYKYNVFEYQRDFLTAYETIKQKGCLPVLCGGTGLYLESVLKGYRLIPVPENQELRVRLAEKSLEELTAILSSYKTLHNSTDVDTVKRAIRAIEIEEYYAKTPIEEREFPQLNSLIIGVDIDRELRREKITRRLKQRLDDGMVEEVRRLLAEGIQPDDLIYYGLEYKYLTLYAIGKMTYDEMFTGLETAIHQFAKRQMTWFRGMERRGFTIHWVDASLPMEEKINFVKQKLKEFLEHHHHHH,soluble
14,MPEAVVLINSASDANSIEQTALPVPMALVHRTRVQDAFPVSWIPKGGDRFSVTAVLPHDHPFFAPVHGDRHDPLLIAETLRQAAMLVFHAGYGVPVGYHFLMATLDYTCHLDHLGVSGEVAELEVEVACSQLKFRGGQPVQGQVDWAVRRAGRLAATGTATTRFTSPQVYRRMRGDFATPTASVPGTAPVPAARAGRTRDEDVVLSASSQQDTWRLRVDTSHPTLFQRPNDHVPGMLLLEAARQAACLVTGPAPFVPSIGGTRFVRYAEFDSPCWIQATVRPGPAAGLTTVRVTGHQDGSLVFLTTLSGPAFSGAAALEHHHHHH,not soluble
15,MPEAWAPVRPETPPAPELLYWNAELADELGLDAGQTDKGELARLFSGADIPEGAQPIAQAYAGHQFGGLSPSLGDGRALLLGEVTDRNGQRRDIALKGSGQTPFSRRGDGKAAVGPMLRELIVGEAMQALGIPTTRALAVTTTGEPVYRERPLPGAVLTRVAASHLRVGTFQYFAIRGETAMLNKLADYTIARHYPQLAGRDGRHLALLAAVAERQAALIARWMHAGFIHGVMNTDNMALSGETIDYGPCAFMDAHYPGTVFSSIDHQGRYAYGNQPAIAQWNLARFAETLLPLISPDDPAAAVPAATEIVEGFEDLYQRRWLEQARRKLGLEGERDDDQALADDWLMLLAAHGVDHTLAWRYLADEAEGKGERLAALFPSPDALTPWLKQWHARHVPRTRRPPDIAAAMRRESPLYIPRNHLVEEALDAASERGDMGPTLKLLEALHQPFAERDGLDRYAQPAAAELAEGYRTFCGTLEHHHHHH,not soluble
16,MPEKYTTPYPARRIHSDGRAEDTEVLLAKECPVKLFLDGKQFTTLFASPLELKELAVGHLITEGILSFKEIAGVEVEGNEVHILTLKGKHPIQDESSRPAGGETKKQIFVNSDAVFDPEALFEGIAYLESDTYKLTRGTHLAALIDKKGKLAVQIVDVGRHNAVDKVVGAAFLRMIDLSQHYMLSTGRQPAYMVTKAARAGIPLVATKAMPFDSGVEAAKKANLCLVGQLRKESMLVFTNEWRVRIAAALEHHHHHH,not soluble
17,MPELPEVETSRRGIEPHLVGATILHAVVRNGRLRWPVSEEIYRLSDQPVLSVQRRAKYLLLELPEGWIIIHLGMSGSLRILPEELPPEKHDHVDLVMSNGKVLRYTDPRRFGAWLWTKELEGHNVLTHLGPEPLSDDFNGEYLHQKCAKKKTAIKPWLMDNKLVVGVGNIYASESLFAAGIHPDRLASSLSLAECELLARVIKAVLLRSIEQGGTTLKDFLQSDGKPGYFAQELQVYGRKGEPCRVCGTPIVATKHAQRATFYCRQCQK,not soluble
18,MPEQLNTRVEDCFQLAESFFKRPFKRPVVSLKLRGQKAGVAHLHENLLRFNPQLYRENTEDFLKQTVAHEVAHLIAHQLFGERIQPHGEEWQLIMRGVYELPPNRCHTYDVKRRSVTRYIYRCPCAESDFPFSAQRHKLVAQGRRYLCRRCRQTLVYSGETRVELEHHHHHH,not soluble
19,MPERFVEMLREENGKIIVRIPGETARYANLEGKEGEYLLVDLVKVFDPHLKLPTHSIGEKAICRTVTFRDNRGYEHLGLEIPQELVNDYGMKAGEYLEAVIEHAILRDKIAAVYPNLEILNQYPYWWRKISQ,not soluble
